B1: myc-α-CD38 Receptor: c-myc-tagged α-CD38 anchoring receptor expressed in Jurkat T cells, SEQ ID NO: 8 (protein)
chain: MEFGLSWLFLVAILKGVQCSEQKLISEEDLDIQLTQSSSSFSVSLGDRVTITCKASEDIYNRLAWYQQKPGNAPRLLISGATSLETGVPSRFSGSGSGKDYTLSITSLQTEDVATYYCQQYWSTPTFGGGTKLEIKRADAAPTVSIFPPSGGGGSGGGGSGGGGSGGGGSQVQLKQSGPSLVQPSQRLSITCTVSGFSLISYGVHWVRQSPGKGLEWLGVIWRGGSTDYNAAFMSRLSITKDNSKSQVFFKMNSLQADDTAIYFCAKTLITTGYAMDYWGQGTSVTVSSAAAIEVMYPPPYLDNEKSNGTIIHVKGKHLCPSPLFPGPSKPFWVLVVVGGVLACYSLLVTVAFIIFWVRSKRS
modifications: Synthetic exemplary nucleic acid sequence for exemplary myc-alpha-CD38-Receptor
B2: NLS-pMag-CreC: nucleus-localized C-terminal split-Cre protein half, SEQ ID NO: 1 (protein)
chain: PKKKRKVGGHTLYAPGGYDIMGYLRQIRNRPNPQVELGPVDTSCALILCDLKQKDTPIVYASEAFLYMTGYSNAEVLGRNCRFLQSPDGMVKPKSTRKYVDSNTINTMRKAIDRNAEVQVEVVNFKKNGQRFVNFLTMIPVRDETGEYRYSMGFQCETEGTNRKWFPAEPEDVRDYLLYLQARGLAVKTIQQHLGQLNMLHRRSGLPRPSDSNAVSLVMRRIRKENVDAGERAKQALAFERTDFDQVRSLMENSDRCQDIRNLAFLGIAYNTLLRIAEIARIRVKDISRTDGGRMLIHIGRTKTLVSTAGVEKALSLGVTKLVERWISVSGVADDPNNYLFCRVRKNGVAAPSATSQLSTRALEGIFEATHRLIYGAKDDSGQRYLAWSGHSARVGAARDMARAGVSIPEIMQAGGWTNVNIVMNYIRNLDSETGAMVRLLEDGD
modifications: Synthetic exemplary nucleic acid sequence for NLS-pMag-CreC

Legend:
[1] = tested on: CD38+ Toledo Target cells; experiment: Activation of myc-α-CD38 Receptor Jurkat T cells upon binding to CD38+ Toledo Target cells; type: cell-based; conditions: Jurkat T cells stably expressing the receptor
Excerpt: FIG. 12D graphically illustrates representative histograms from flow cytometry showing that α-CD19-CAR-EGFP^+ Jurkat T cells both (I) bind to and (II) are activated by CD19^+ Toledo Target cells, while myc-α-CD38-Receptor^+ Jurkat T cells (III) bind to but (IV) are not activated by CD38^+ Toledo Target cells;
The TamPA-Cre system was next applied to induce CAR expression in the physiologically relevant Jurkat T cell line. […] Likewise, Jurkat T cells stably expressing myc-α-CD38 Receptor were not activated upon binding to CD38^+ Toledo Target cells, as expected (Fig. S6D).

[2] = tested on: EGFP Reporter HEK293T cells; experiment: Cre-loxP recombination in EGFP Reporter HEK293T cells, % EGFP+ by flow cytometry normalized to Cre groups; type: cell-based; conditions: Dark, Ambient, Light (5 W/m^2, 7.5 s per min, 24 h); n=5
Excerpt: FIG. 2A is a schematic representation of the EGFP Reporter genetic construct before and after Cre-loxP recombination; the hEF1α promoter drives mCherry expression.
FIG. 3E graphically illustrates the number of recombined cells after recombination in TamPA-Cre-nH1^+ EGFP Reporter HEK293T cells subjected (Light) or not (Ambient, Dark) to Protocol B (n=3) of FIG. 3C; reporter is untransfected EGFP Reporter HEK293T cell line (n=3), blue light stimulation started and flow cytometry measurements taken 24 h and 72 h post-transfection, respectively; percentage of recombined HEK293T cells (normalized to maximal recombination)=100%*(% of EGFP^+ cells)/(mean % of EGFP^+ cells in corresponding Cre groups). […]
To compare the two photoactivatable split-Cre systems, EGFP Reporter HEK293T cells were or were not (Reporter) transiently transfected with either PA-Cre-C, PA-Cre-M, or Cre constructs (Fig. S1A-D). […] The percentage of EGFP^+ recombined cells in each cell group was determined by flow cytometry 24 h later. […]

Row | Molecule | T cell activation upon binding to Target cells [1] | Cre-loxP recombination by one split-Cre half alone versus Reporter [2]
1 | B1 | not activated | –
2 | B2 | – | no significant difference

— patent publication US20230036060A1, “DUAL-CONTROLLED DRUG AND PHOTOACTIVATABLE SYSTEM FOR SPATIOTEMPORAL CONTROL OF CELL THERAPY” (THE REGENTS OF THE UNIVERSITY OF CALIFORNIA, priority 2019, published 2023)
